Measurements reported in the DeepSol protein solubility set.

Assay: soluble on expression in E. coli; label from the status in PepcDB or PDB records

Sequence	soluble on expression in E. coli
MSTRPEVFDLIVIGGGPGGSTLASFVAMRGHRVLLLEREAFPRHQIGESLLPATVHGICAMLGLTDEMKRAGFPIKRGGTFRWGKEPEPWTFGFTRHPDDPYGFAYQVERARFDDMLLRNSERKGVDVRERHEVIDVLFEGERAVGVRYRNTEGVELMAHARFIVDASGNRTRVSQAVGERVYSRFFQNVALYGYFENGKRLPAPRQGNILSAAFQDGWFWYIPLSDTLTSVGAVVSREAAEAIKDGHEAALLRYIDRCPIIKEYLAPATRVTTGDYGEIRIRKDYSYCNTSFWKNGMALVGDAACFVDPVFSSGVHLATYSALLVARAINTCLAGEMSEQRCFEEFERRYRREYGNFYQFLVAFYDMNQDTDSYFWSARKIINTEERANEAFVRLIAGRSNLDEPVFQSVAKDFFTEREGFGAWFGGLVTSMAKGDGGGLMVGEGATDATESTGFAPENFMQGFTREITELQHLAMFGEDRGPETPLWSGGLVPSRDGLAWAVESGEDAAG	soluble
MSTSEDKPEIISRVVHQEGDVEIVDRSQKDKDEEKEEGKGGFLDKVKDFIHDIGEKLEGTIGFGKPTADVSAIHIPKINLERADIVVDVLVKNPNPVPIPLIDVNYLVESDGRKLVSGLIPDAGTLKAHGEETVKIPLTLIYDDIKSTYNDINPGMIIPYRIKVDLIVDVPVLGRLTLPLEKCGEIPIPKKPDVDIEKIKFQKFSLEETVAILHVRLQNMNDFDLGLNDLDCEVWLCDVSIGKAEIADSIKLDKNGSGLINVPMTFRPKDFGSALWDMIRGKGTGYTIKGNIDVDTPFGAMKLPIIKEGGETRLKKEDDDDDDEE	soluble
MSTTAEETPTQALPTQTRTLTGWGRTAPTTAQVLSTPDVEVIARAVAQVAEQNESKPAHLQRGVIARGLGRSYGDPAQNAGGLVIDMNALNRIHRIDRDTHLVEVDAGVNLDQLMKAALPFGLWVPVLPGTRQVTIGGAIGSDIHGKNHHSAGSFGNHVVSLDLLTADGKVRTLTPKGGRNDPKGALFWATIGGMGLTGIILKATIKMTPTETAYFIADGDVTQTLDETIALHSDGSESNYEYSSAWFDAIAAPPKLGRAAISRGSLAKLDQLPAKLQKNPLAFDAPQLLTFPDVFPNGLANKFNFSMIGELWFRKSGTYRDKVQNLTQFYHPLDMFGEWNRAYGSNGFLQYQFVVPTTAVEEFKAIIRDIQKSGHYSFLNVFKLFGEGNQAPLSFPIPGWNICVDFRIKPGLNEFVTELDKRVLKFGGRLYTAKDSRTTAETFHAMYPRIDEWIATRRKYDPTNVFASDMSRRLEL	not soluble
MSTTDKQVAIVGVGPRGISILERIAAALNTVSRPKQGLTIHLIEDAQMGAGNVWRTDQTRTLCMNTLAGAVTLFTEPGSTVSAPVVEGPLQFDWIRLLRGDEDLSGIPTKAIELFRTYPPAASVAEDFKEELAATVIQSNPSRALYGAYLRWAFDVALQLLPQWVKVEQHHARAIGIREDGDRDVITLDNSEMISADSTVLAVGWQTPAPNAEELSIAAALEENPDLVWVKPGNPVEQDASLIPAGEQVLVRGLGMGFFDIMALTTIDRGGIFHEDPSTRSGLRYEASGEEPHFVISSGRGYPYLPKSDYKSLPPGAKLARLKAVIAAINAQNRGVASINYDAEVWPAVARDAYEAYYETLDRVSPESIRTGLDKIVEIIDEVDVDKLPKALAAHTDDVFDLHAWEFPLAGINESVEALTARIADGMARDIRHAVTAWDSPLKSALWSISAARKPSSILGAEGRLTFESRRNRFAAVMAIGQMVGSGPPLFRTRELLALVDAGLAHFAGARPRLSVSDGQWQISSPTTGDTPLRSKVLVDAWMHNP	not soluble
MSTTGSAPLNLREWTAPEKLLPNGSPLVPVDARGADWHGIELGELDLRGAKLCRCDLRGTDLSHCQLDGADLRLARYDSQTVVPVGFDLSNSGAVGPGAKLNGVYLNSSDLRGMDLRGSMLLGSYLSGADLSGAILDGVSLAGSDLRSSTMRGAMCRGTRFGTCELDMADLRGANLEGAVLETVESIRGADFSLCTGLGAQIDALLSRSVAELDCWNPLTRSTTRDSLESLRAARSD	not soluble
MSTTGSAPPNSKLKSVEDTDDDRTLAEDDQNDQNSGSMDHRFERIKVTLMMTQGKKFGLGIVSVHQRILVCKVENESLVAGVLKYGDQIIEINKKNVLNKIDCKKRLMQCLKDKGQVDIIIVRPKTADAVTMIEQEIQLSQQPSTTAQPKIN	not soluble
MSTVIKGGTIVTADLTYKADVKVEGGRIVEIGPNLSGAETLDATGCYVMPGGIDPHTHLEMPFMGTYSSDDFESGTRAALAGGTTMVVDFALPSPGQSLLEALTMWDNKSTRANCDYSFHMAITWWGEQVFNEMETIVKDKGINTFKHFMAYKGALMVDDDEMFSSFQRCAALGALPLVHAENGDVVAQLQAKLLAEGNSGPEAHAYSRPAEVEGEAANRAIMIADMAGCPVYIVHTSCEQAHEAIRRARAKGMRVFGEPLIQHLTLDETEYFDKDWDHAARRVMSPPFRNKLHQDSLWAGLASGSLQVVATDHCAFTTEQKRFGVGDFTRIPNGTGGLEDRMPMLWTYGVATGRITMNEFVAVTSTNIAKILNIYPKKGAILVGADADLVVWDPKRSKTISAKTQQSAIDYNVFEGKTVTGLPRFTLTRGVVSIEEGTVKTQEGHGEFVRRDPFPAVSTALSTWKEVTAPRAVQRSGIPASGVHHHHHH	soluble
MSVDETITFSLAVKNTGNREGQEIVQLYIRDIKSSLPRPVKELKRFKKVNLMPGEEKIVSLSIDKEALSFFDAERHEWICEPGKFEAIIAASAMDIKDVLKFELKLEHHHHHH	not soluble
MSVDYPRDLIGYGSNPPHPHWPGKARIALSFVLNYEEGGERNILHGDKESEAFLSEMVSAQPLQGERNMSMESLYEYGSRAGVWRILKLFKAFDIPLTIFAVAMAAQRHPDVIRAMVAAGHEICSHGYRWIDYQYMDEAQEREHMLEAIRILTELTGERPLGWYTGRTGPNTRRLVMEEGGFLYDCDTYDDDLPYWEPNNPTGKPHLVIPYTLDTNDMRFTQVQGFNKGDDFFEYLKDAFDVLYAEGAEAPKMLSIGLHCRLIGRPARLAALQRFIEYAKSHEQVWFTRRVDIARHWHATHPYTGAAK	soluble
MSVEKIPGYTYGETENRAPFNLEDLKLLKEAVMFTAEDEEYIQKAGEVLEDQVEEILDTWYGFVGSHPHLLYYFTSPDGTPNEKYLAAVRKRFSRWILDTSNRSYDQAWLDYQYEIGLRHHRTKKNQTDNVESVPNIGYRYLVAFIYPITATMKPFLARKGHTPEEVEKMYQAWFKATTLQVALWSYPYVKYGDF	soluble
MSVIIISRNQEKLDRAAKKIELNTGGKVKVIAADFTKDDIYGHITENIEGLDIGVLVNNVGILPSQIPCKLLETSDLEERIYDIVNCNVKSMVKMCRIVLPGMQQRRRGVILNVSSGIAKIPCPIYTLYAASKVFVERFSQGLQAEYISKGIIIQTVAPFGVSTAMTGHQKPDMVTFTAEEFVRSSLKYLKTGDQTYGSITHTLLGRIVQSIPTWVLQSETFQHHFQEYVKNRDRR	not soluble
MSVKPVDLNKLRSTHENLYETVVAISKKAREIQEEERAELEERLLPYKEMIRNPASESESEKVFPEQIAISVAFECREKPTQQALAQYLDHQYDYVLEKSPETKVAQNEDEDESDRD	not soluble
MSVLYIQIRRNQITVRDLESKREVSGDAAFSNQRLLIANFFVAEKVLQDLVLQLHPRSTWHSFLPAKRMDIVVSALEMNEGGLSQVEERILHEVVAGATLMKYRQFHIHAQSAVLSDSAVMAMLKQK	soluble
MSVSLVVIRLELAEHSPVPAGFGFSAAAGEMSDEEIKKTTLASAVACLEGKSPGEKVAIIHQHLGRREMTDVIIETMKSNPDELKTTVEERKSSEASPTAQRSKDHSKECINAAPDSPSKQLPDQISFFSGNPSVEIVHGIMHLYKTNKMTSLKEDVRRSAMLCILTVPAAMTSHDLMKFVAPFNEVIEQMKIIRDSTPNQYMVLIKFRAQADADSFYMTCNGRQFNSIEDDVCQLVYVERAEVLKSEDGASLPVMDLTELPKCTVCLERMDESVNGILTTLCNHSFHSQCLQRWDDTTCPVCRYCQTPEPVEENKCFECGVQENLWICLICGHIGCGRYVSRHAYKHFEETQHTYAMQLTNHRVWDYAGDNYVHRLVASKTDGKIVQYECEGDTCQEEKIDALQLEYSYLLTSQLESQRIYWENKIVRIEKDTAEEINNMKTKFKETIEKCDNLEHKLNDLLKEKQSVERKCTQLNTKVAKLTNELKEEQEMNKCLRANQVLLQNKLKEEERVLKETCDQKDLQITEIQEQLRDVMFYLETQQKINHLPAETRQEIQEGQINIAMASASSPASSGGSGKLPSRKGRSKRGK	soluble
MSVTVEQEAYEMPADNKKVMLKIEEVHLHSCGVFSNVYKGILREPYEKKIAIKKSWPEKGERNFEFIFLTGRERAKHKNVIHMIFAFSHSYDTKVCESYVFDFMPNTLAEVIRQKLTDLDIRLYTWQIFSGLKYLEEHKVVHRDLKPVNILVDHDTAFLKISDFGSAKIIVKGKANNFYQVTRFYRPPELLMKAMEYNSTVDVWSAGCIMAEMVKRHVVFPGRDSAHQLKLYCRCFGAPNEQDISAMKGEKLEKEYWKFTKGFGLQRLVNDISPDQLQFIKRILVYAPEKRLRGKQLLQDDFFRPLFKAGAVRHNGQKISDVITAADYKRAAENEESSACRLAQLVKTDNKDLGIPYCEKSNSYENVYARRSTLIPKEQKMARDNKSKEDSSDDRRVAPSSGEAPSAPGKRSESNKTAAIAKKSTMKSVMNAPPPRQKPE	not soluble
MSVVSERDVDEYSKQKPETYVLQVSERERKEKYERKNPPIPLDNEYNYQDVTPSPFPFHIDAPSLVFMGRLGEEPISAHFTLTNRTCKPFWFKIKVSSRELFKVRPTNGKLENSERVVIRVIFYPNVRVPKPFCEYLHVYALFAGLGDRTAYEAFNRLDRQRTLPPKRLFTEFVWHPNIGMTQAYENGKLMEMMRAKQKLLDYRKDENDKIKTFQVDFNNVIFDHRNRVLDRMLKANVVEKEKLLYMPTPNLNLYMQNLRNQKNRSKLAVLLERRGDAFKGVQNLYAEEVLAKRTGDKMFEKYKKKKGTKGYQSLDAKLYRPVKVVRNTKNKKKKGKK	not soluble
MSWINRIFSKSPSSSTRKANVPEGVWTKCTACEQVLYSEELKRNLYVCPKCGHHMRIDARERLLNLLDEDSSQEIAADLEPKDILKFKDLKKYKDRINAAQKETGEKDALITMTGTLYNMPIVVAASNFAFMGGSMGSVVGAKFVKAAEKAMEMNCPFVCFSASGGARMQEALFSLMQMAKTSAVLAQMREKGVPFISVLTDPTLGGVSASFAMLGDLNIAEPKALIGFAGPRVIEQTVREKLPEGFQRSEFLLEKGAIDMIVKRSEMRQTLASVLSKLTNQPSPFVEPELISEDE	not soluble
MSWQEKINAALDARRAADALRRRYPVAQGAGRWLVADDRQYLNFSSNDYLGLSHHPQIIRAWQQGAEQFGIGSGGSGHVSGYSVVHQALEEELAEWLGYSRALLFISGFAANQAVIAAMMAKEDRIAADRLSHASLLEAASLSPSQLRRFAHNDVTHLARLLASPCPGQQMVVTEGVFSMDGDSAPLAEIQQVTQQHNGWLMVDDAHGTGVIGEQGRGSCWLQKVKPELLVVTFGKGFGVSGAAVLCSSTVADYLLQFARHLIYSTSMPPAQAQALRASLAVIRSDEGDARREKLAALITRFRAGVQDLPFTLADSCSAIQPLIVGDNSRALQLAEKLRQQGCWVTAIRPPTVPAGTARLRLTLTAAHEMQDIDRLLEVLHGNG	soluble
MSYLDFNSMLNNLYTKFGDSSFENVFYLPEPKISKKSTRIDWININVFLKSVNRSIEHFINYLKNDRKISTTYQNNILIIQGKYRKEDINKMMLEYVNKFCKCPICSSYDTLLVKDGTIRKEKIICSKCKSTTFCS	not soluble
